The record followed here is paper PMC7721647, “The Human RNA Helicase DDX21 Presents a Dimerization Interface Necessary for Helicase Activity” (iScience, 2020).

The target in one data set is T1, DDX21Core-DD (human, UniProt Q9NR30 186-620).
T1 sequence: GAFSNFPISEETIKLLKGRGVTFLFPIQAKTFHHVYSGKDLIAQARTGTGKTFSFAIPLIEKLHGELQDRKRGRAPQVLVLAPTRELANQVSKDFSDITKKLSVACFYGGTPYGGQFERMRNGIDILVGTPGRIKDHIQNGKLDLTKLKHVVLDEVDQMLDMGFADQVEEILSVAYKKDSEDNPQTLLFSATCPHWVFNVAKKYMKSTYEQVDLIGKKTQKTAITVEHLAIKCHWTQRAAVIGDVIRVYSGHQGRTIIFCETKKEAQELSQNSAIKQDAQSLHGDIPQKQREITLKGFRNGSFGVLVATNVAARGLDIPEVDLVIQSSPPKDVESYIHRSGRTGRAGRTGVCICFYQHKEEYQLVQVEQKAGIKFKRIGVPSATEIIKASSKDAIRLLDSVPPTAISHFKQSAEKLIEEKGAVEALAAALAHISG
The experiment in a line: fluorescence polarization; 50 mM KCl; FP: 50 mM Tris pH 7.5, 50 mM KCl, 5 mM MgCl2, no ATP; Hill-slope fit; temperature not given in the material. To be noted: protein: recombinant; tags: C-terminal His6, uncleavable; chain copies: 2; label: 5'-FAM; G4. (In general: Fluorescence polarisation rises when a labelled molecule tumbles more slowly, as on binding a larger partner.)

In another data set the target is T2, DDX21ΔNC (human, UniProt Q9NR30 186-710).
T2 sequence: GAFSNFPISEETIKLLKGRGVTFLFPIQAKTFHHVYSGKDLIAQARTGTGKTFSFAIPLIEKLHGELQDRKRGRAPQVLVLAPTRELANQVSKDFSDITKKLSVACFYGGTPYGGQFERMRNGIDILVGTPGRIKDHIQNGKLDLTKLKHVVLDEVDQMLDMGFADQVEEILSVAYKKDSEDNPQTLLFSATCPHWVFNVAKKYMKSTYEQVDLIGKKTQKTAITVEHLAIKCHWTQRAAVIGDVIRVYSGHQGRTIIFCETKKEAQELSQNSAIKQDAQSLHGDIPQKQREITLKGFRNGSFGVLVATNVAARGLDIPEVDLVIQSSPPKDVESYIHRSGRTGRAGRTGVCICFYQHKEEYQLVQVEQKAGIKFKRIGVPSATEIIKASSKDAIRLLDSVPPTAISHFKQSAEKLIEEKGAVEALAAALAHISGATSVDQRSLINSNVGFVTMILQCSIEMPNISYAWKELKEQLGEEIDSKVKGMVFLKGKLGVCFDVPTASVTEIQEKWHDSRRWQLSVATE
The experiment in a line: fluorescence polarization; 50 mM KCl (Table S2 prints 36.7); FP: 50 mM Tris pH 7.5, 50 mM KCl, 5 mM MgCl2, no ATP; Hill-slope fit; temperature not given in the material. The note with it: protein: recombinant; chain copies: 2; label: 5'-FAM; G4.

Take GUUGGGGCGGGCGUUGGGUUUGGGGGGACG (structured_RNA) [Q2 RNA G-quadruplex]: the equilibrium dissociation constant (Kd) (in general, a measure of binding affinity in units of concentration) in the data set with DDX21Core-DD turned out to be 0.0231 ± 0.0032 µM; with DDX21ΔNC it was 0.0365 ± 0.0027 µM.
